# According to the supplement of paper PMC10567573:
# B1: PLAGL1 (parent)
# chain: CKDFLCQFCAQRFGRKDHLTRHTK
# B2: TIA1 (parent)
# chain: TYECRCIGEEKEMWNFGEKYARF
# Variants of: B1
# Assay: protein stability index of a GFP-peptide fusion (GPS, HEK-293T) (PSI 1-6); higher = more stable
# Conditions: c terminus: a fixed tail appended
# 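Note: lentivirally expressed fusions sorted by FACS into six bins by GFP to DsRed ratio, PSI derived from sequencing read proportions per bin multiplied by bin number.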
row,Variant,protein stability index
1,L19H,2.16
2,L19I,2.32
3,L19N,1.91
4,L19D,3.71
5,L19T,3.32
6,L19Y,1.9
7,L19F,2.58
8,L19W,1.65
9,L19E,1.99
10,L19A,2.54
11,L19M,2.4
12,L19V,1.99
13,L19C,2.25
14,L19P,2.02
15,L19R,2.39
16,L19Q,2.48
17,L19G,2.73
18,L19K,3.13
19,L19S,2.13
20,H18Q,1.96
21,H18D,1.68
22,H18G,1.95
23,H18V,2.59
24,H18F,1.49
25,H18W,1.94

row,Variant,protein stability index
1,H18R,2.35
2,H18C,2.6
3,H18N,1.97
4,H18M,1.64
5,H18Y,2.45
6,H18E,1.96
7,H18I,2.07
8,H18K,2.25
9,H18P,1.75
10,H18L,1.33
11,H18S,1.82
12,H18A,2.51
13,H18T,2.25
14,K24R,2.08
15,K24E,2.3
16,K24I,2.08
17,K24Y,1.56
18,K24H,2.41
19,K24A,2.73
20,K24D,1.73
21,K24W,2.03
22,K24G,1.74
23,K24Q,2.25
24,K24F,2.4
25,K24T,2.24

row,Variant,protein stability index
1,K24M,1.74
2,K24N,1.9
3,K24V,1.67
4,K24S,2.02
5,K24P,2.21
6,K24C,2.83
7,K24L,1.49
8,T20S,2.17
9,T20A,2.25
10,T20Q,1.75
11,T20R,1.93
12,T20E,2.29
13,T20G,2.17
14,T20V,2.28
15,T20K,2.35
16,T20W,1.47
17,T20Y,1.82
18,T20C,3.02
19,T20L,2.22
20,T20F,1.83
21,T20M,2.66
22,T20P,1.82
23,T20I,1.58
24,T20D,1.72
25,T20H,1.96

row,Variant,protein stability index
1,T20N,2.01
2,D17I,2.52
3,D17A,2.28
4,D17H,1.85
5,D17K,1.94
6,D17E,2.14
7,D17C,2.06
8,D17V,1.64
9,D17Y,1.7
10,D17L,2.03
11,D17N,2.04
12,D17P,2.4
13,D17S,2.12
14,D17W,1.35
15,D17T,2.44
16,D17F,2.08
17,D17R,2.37
18,D17G,1.67
19,D17Q,1.92
20,D17M,1.3
21,K16S,1.95
22,K16L,2.49
23,K16T,2.82
24,K16M,1.68
25,K16P,2.25

row,Variant,protein stability index
1,K16Q,2.62
2,K16G,2.15
3,K16E,1.93
4,K16A,2.67
5,K16C,2.53
6,K16R,2.44
7,K16N,1.92
8,K16H,2.39
9,K16Y,1.86
10,K16F,2.17
11,K16I,2.37
12,K16W,2.33
13,K16D,2.35
14,K16V,2.05
15,T23A,2
16,T23N,1.81
17,T23D,2.81
18,T23M,2.04
19,T23F,2.23
20,T23G,2.15
21,T23P,1.76
22,T23C,2.17
23,T23L,1.62
24,T23Q,3.45
25,T23I,2.4

row,Variant,protein stability index
1,T23K,2.44
2,T23Y,1.77
3,T23H,2.02
4,T23R,1.95
5,T23E,1.68
6,T23V,1.87
7,T23S,2.38
8,T23W,1.51
9,R15D,2.24
10,R15K,2.52
11,R15C,1.82
12,R15A,1.82
13,R15W,1.61
14,R15I,1.91
15,R15L,2.06
16,R15T,1.93
17,R15Y,2.38
18,R15Q,1.74
19,R15P,1.66
20,R15N,1.83
21,R15M,1.73
22,R15S,1.73
23,R15V,2.3
24,R15G,2.36
25,R15H,1.85

row,Variant,protein stability index
1,R15E,2.52
2,R15F,1.79
3,H22P,2.3
4,H22W,2.52
5,H22S,2.04
6,H22M,2.12
7,H22K,1.68
8,H22V,2.81
9,H22Q,1.77
10,H22N,1.48
11,H22Y,2.7
12,H22E,1.8
13,H22R,2.15
14,H22D,2.09
15,H22A,2.03
16,H22F,1.65
17,H22I,1.76
18,H22T,2.57
19,H22C,2.4
20,H22L,1.85
21,H22G,2.56
22,G14W,1.77
23,G14V,1.99
24,G14Y,1.99
25,G14T,2.09

row,Variant,protein stability index
1,R21S,1.3
2,R21A,1.94
3,R21N,2.53
4,R21P,2.1
5,R21L,2.1
6,R21K,2.27
7,R21Y,1.85
8,R21E,2.48
9,R21V,1.59
10,R21C,2.01
11,R21D,2.37
12,R21T,1.77
13,R21M,1.97
14,R21I,1.82
15,R21W,2.16
16,R21H,1.87
17,R21Q,2.56
18,R21G,2.02

# Variants of: B2
# Assay: as above
# Conditions: c terminus: native
row,Variant,protein stability index
1,T1C,1.23
2,T1S,2.51
3,T1P,3.63
4,T1E,4.38
5,T1L,1.7
6,T1V,1.8
7,T1Y,1.63
8,T1I,2.19
9,T1H,2.31
10,T1A,2.54
11,T1G,2.27
12,T1W,1.68
13,T1Q,2.35
14,T1N,3.21
15,T1R,1.68
16,T1D,3.71
17,T1M,3.02
18,T1K,1.83
19,E3Q,2.61
20,E3P,2.47
21,E3Y,2.18
22,E3K,1.66
23,E3M,2.49
24,E3R,1

row,Variant,protein stability index
1,E3A,2.23
2,E3D,3.24
3,E3C,3.65
4,E3H,1.8
5,E3G,2.14
6,E3T,3.76
7,E3S,1.94
8,E3L,2.42
9,E3N,1.98
10,C6P,3.72
11,C6D,4.2
12,C6H,3.75
13,C6A,2.92
14,C6G,3.94
15,C6N,3.44
16,C6K,3.64
17,C6L,1.56
18,C6E,4.37
19,C6W,1.53
20,C6Y,2.14
21,C6F,3.08
22,C6Q,3.9
23,C6T,3.1
24,C6R,3.38

row,Variant,protein stability index
1,C6M,1.84
2,C6S,3.8
3,C6I,2.89
4,E9A,1.85
5,E9G,2.09
6,E9D,2.28
7,E9F,1.81
8,E9C,2.1
9,E9H,1.74
10,G8N,2.28
11,G8R,3.32
12,G8H,1.46
13,G8D,1.58
14,G8C,1.6
15,G8F,2.01
16,G8Y,2.37
17,G8P,2.14
18,G8A,2.54
19,G8I,2.04
20,G8K,2.18
21,G8V,2.65
22,G8S,1.98
23,G8T,2.47
24,R5Q,1.73

row,Variant,protein stability index
1,R5K,2.3
2,R5F,2.1
3,R5A,1.66
4,R5S,2.54
5,R5N,2.86
6,R5V,2.46
7,R5T,2.31
8,R5P,3.48
9,R5L,2.29
10,R5E,2.02
11,R5I,2.8
12,R5D,3.07
13,R5W,1.98
14,R5H,2.62
15,R5Y,1.35
16,R5C,1.97
17,R5G,2.93
18,I7Q,3.02
19,I7F,2.12
20,I7T,2.98
21,I7G,3
22,I7P,3.87
23,I7R,1.8
24,I7V,1.76

row,Variant,protein stability index
1,I7K,2.18
2,I7L,1.98
3,I7M,1.72
4,I7S,2.16
5,I7H,3.01
6,I7E,3.42
7,I7N,2.66
8,I7D,2.87
9,I7Y,2.3
10,C4S,2.01
11,C4K,3.16
12,C4R,2.31
13,C4H,3.33
14,C4T,2.31
15,C4L,2.85
16,C4Q,1.67
17,C4N,2.31
18,C4F,2.28
19,C4V,1.88
20,C4W,1.91
21,C4M,2.62
22,C4P,3.81
23,C4I,2.31
24,C4A,3.13

row,Variant,protein stability index
1,C4E,2.2
2,C4Y,1.93
3,Y2C,3.3
4,Y2M,2.88
5,Y2L,3.66
6,Y2A,2.94
7,Y2V,3.16
8,Y2E,4.79
9,Y2I,3.31
10,Y2G,4.38
11,Y2Q,3.97
12,Y2R,3.07
13,Y2S,3.2
14,Y2F,4.21
15,Y2H,2.44
16,Y2P,3.99
17,Y2W,4.98
18,Y2D,4.27
19,Y2T,4.18
20,Y2N,3.75
21,Y2K,3.51
